Source: US20180312579A1 (Genentech, published 2018)

B1: 49G5 (antibody, V domains shown)
VH: QVQLKESGPGLVQPSQTLSLTCTVSGFSLTSYNIHWVRQPPGKGLEWMGAVWRGGGTYYNSNLKSRVIITRDTSKSQVLLKLNNLQHEDTAMYYCAREELRYVYFDVWGQGIQVTVSS
VL: QPLLTQSPSVSASLGASVKLTCTLSSQYNTYYIEWYQQHPDKSPKFLMQLSDGSHSKGDGIPDRFSGSSSGAHRYLSISNLQLEDEAIYYCGVSDVSLYVFGSGTQLTVL
notes: also called monoclonal antibody 49G5
B2: 36D2 (antibody, V domains shown)
VH: QIQLQESGPGLVKPSQSLSLTCSVTGNSITSSDWSWIRQFPGKKLEWMGYMNYGGGTYYNPSLENRISITRDTSKNQFFLHLKSVTTEDTATYYCARERPHPYAYFDVWGQGIQVTVSS
VL: ELVFTQPQSVSGSLGQEISISCTRSSGNIGSNYVSWYQQQSSNKPRLLIYKFDQRPSGVPDRFSGSTDSSSNSGILTISRLQPEDEGDYYCLSGYDKYVFGSGTQLTLL
notes: also called monoclonal antibody 36D2
B3: 11F11 (antibody, V domains shown)
VH: QVQLQQSGPQLVKPGFSVKFSCKASGITFTEYYVTWVKQRAGQGLEWVGDIDPENGDTDYNQKFQGKATITADKSSSTAYMELSSLTSEDSAVYYCATGYDYAFDSWGQGTLVTVSS
VL: QPVLTQSPSASASLGASVKLTCTLSSQHSSYGITWLQQHPDKAPKCVMYLRSDGSHSKGDGIPDRFSGSSSGAHRYLSISNVQPEDEAIYFCVTYDSTVGVFGSGTQLTVP
notes: also called monoclonal antibody 11F11

Legend:
[1] = biological target: T1, human RSPO2 with C-terminal HA tag, stably expressed in 293 cells (human, UniProt Q6UXX9 22-243); assay: IHC, FFPE 293 cell pellet, RSPO2 Hi
T1 construct: Whole open reading frame was expressed from a lentiviral vector in HEK-293 cells sorted for high, medium or low expression; formalin-fixed paraffin-embedded pellets; also called hRSPO2; RSPO2 Hi

[2] = biological target: T1, human RSPO2 with C-terminal HA tag, …; assay: IHC, FFPE 293 cell pellet, RSPO2 Low
[3] = biological target: T1, human RSPO2 with C-terminal HA tag, …; assay: IHC, FFPE 293 cell pellet, RSPO2 Med
[4] = biological target: T2, human RSPO1 with C-terminal HA tag, stably expressed in 293 cells (human, UniProt Q2MKA7 21-263); assay: IHC, FFPE 293 cell pellet, RSPO1 Hi; - = not significant staining
T2 construct: also called hRSPO1; RSPO1 Hi
T2 sequence (Q2MKA7 other isoform, or with tags, fused parts or gaps limits assumed): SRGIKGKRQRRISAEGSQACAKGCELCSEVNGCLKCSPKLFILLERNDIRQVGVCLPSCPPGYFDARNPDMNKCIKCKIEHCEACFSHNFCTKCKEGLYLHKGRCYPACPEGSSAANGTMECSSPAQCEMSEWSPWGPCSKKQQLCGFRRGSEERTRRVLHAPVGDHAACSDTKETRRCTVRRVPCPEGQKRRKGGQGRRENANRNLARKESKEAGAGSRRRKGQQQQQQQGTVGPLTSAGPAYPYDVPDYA

[5] = biological target: T3, human RSPO3 with C-terminal HA tag, stably expressed in 293 cells (human, UniProt Q9BXY4 22-272); assay: IHC, FFPE 293 cell pellet, RSPO3 Hi; - = not significant staining
T3 construct: Whole open reading frame expressed in HEK-293 cells (high, medium, low); FFPE pellets; also called hRSPO3; RSPO3 Hi
T3 sequence: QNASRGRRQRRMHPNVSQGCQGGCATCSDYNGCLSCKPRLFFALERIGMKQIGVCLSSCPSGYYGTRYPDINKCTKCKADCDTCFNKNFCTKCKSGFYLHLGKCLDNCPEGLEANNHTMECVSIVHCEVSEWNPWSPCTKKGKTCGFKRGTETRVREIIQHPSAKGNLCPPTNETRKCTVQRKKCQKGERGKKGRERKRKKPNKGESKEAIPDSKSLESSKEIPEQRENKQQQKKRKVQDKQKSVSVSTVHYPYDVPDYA

[6] = biological target: T4, human RSPO4 with C-terminal HA tag, stably expressed in 293 cells (human, UniProt Q2I0M5 20-234); assay: IHC, FFPE 293 cell pellet, RSPO4 Hi; - = not significant staining
T4 construct: also called hRSPO4; RSPO4 Hi
T4 sequence (Q2I0M5 other isoform, or with tags, fused parts or gaps limits assumed): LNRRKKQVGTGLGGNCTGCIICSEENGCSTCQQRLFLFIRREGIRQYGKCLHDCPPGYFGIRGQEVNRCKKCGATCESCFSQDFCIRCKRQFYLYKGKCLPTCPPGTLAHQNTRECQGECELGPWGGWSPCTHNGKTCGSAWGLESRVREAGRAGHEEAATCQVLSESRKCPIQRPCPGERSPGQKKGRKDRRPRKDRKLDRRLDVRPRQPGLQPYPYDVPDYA

recombinant human RSPO2 = recombinant human RSPO2 (human, UniProt Q6UXX9 22-243); assay: cell-based or functional assay
recombinant human RSPO3 = biological target: T5, recombinant human RSPO3 (human, UniProt Q9BXY4 22-272); assay: cell-based or functional assay
T5 sequence: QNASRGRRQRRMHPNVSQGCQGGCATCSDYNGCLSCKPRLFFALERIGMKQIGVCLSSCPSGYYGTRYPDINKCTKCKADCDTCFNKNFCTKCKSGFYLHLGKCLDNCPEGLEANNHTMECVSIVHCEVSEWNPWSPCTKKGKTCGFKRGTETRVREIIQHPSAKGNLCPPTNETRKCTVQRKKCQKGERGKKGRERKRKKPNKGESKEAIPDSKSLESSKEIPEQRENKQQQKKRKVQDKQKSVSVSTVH

cynomolgus RSPO3 = biological target: T6, cynomolgus RSPO3 (cynomolgus, UniProt A0A2K5UTQ7 22-273); assay: cell-based or functional assay
T6 sequence: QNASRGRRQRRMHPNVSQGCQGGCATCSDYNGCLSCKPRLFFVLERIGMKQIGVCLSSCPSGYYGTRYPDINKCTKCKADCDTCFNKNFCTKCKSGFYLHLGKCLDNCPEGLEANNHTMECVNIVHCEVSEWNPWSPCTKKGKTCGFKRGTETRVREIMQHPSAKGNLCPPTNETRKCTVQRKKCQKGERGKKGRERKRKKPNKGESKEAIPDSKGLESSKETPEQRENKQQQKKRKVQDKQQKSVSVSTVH

mouse RSPO3 = biological target: T7, mouse RSPO3 (mouse, UniProt Q2TJ95 22-277, limits assumed); assay: cell-based or functional assay
T7 sequence (looked up): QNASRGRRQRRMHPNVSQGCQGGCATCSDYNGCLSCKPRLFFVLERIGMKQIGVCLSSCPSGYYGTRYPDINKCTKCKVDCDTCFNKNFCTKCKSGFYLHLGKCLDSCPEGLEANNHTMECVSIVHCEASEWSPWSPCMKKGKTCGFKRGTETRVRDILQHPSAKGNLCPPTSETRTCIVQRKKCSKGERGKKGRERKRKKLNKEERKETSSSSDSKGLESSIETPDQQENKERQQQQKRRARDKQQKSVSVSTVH

cynomolgus RSPO2 = cynomolgus RSPO2 (cynomolgus, UniProt G7PCH9 22-243); assay: cell-based or functional assay
mouse RSPO2 = mouse RSPO2 (mouse, UniProt Q8BFU0 22-205, limits assumed); assay: cell-based or functional assay
Chain of mouse RSPO2 (Q8BFU0 22-205 limits assumed): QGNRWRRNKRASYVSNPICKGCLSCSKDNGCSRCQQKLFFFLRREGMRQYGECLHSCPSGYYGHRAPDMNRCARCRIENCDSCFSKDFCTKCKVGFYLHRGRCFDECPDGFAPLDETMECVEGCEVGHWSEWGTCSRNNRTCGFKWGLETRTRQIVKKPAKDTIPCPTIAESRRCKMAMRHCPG

[7] = biological target: T8, human RSPO2 L186P variant (human, UniProt Q6UXX9 22-243); assay: cell-based or functional assay
T8 chain: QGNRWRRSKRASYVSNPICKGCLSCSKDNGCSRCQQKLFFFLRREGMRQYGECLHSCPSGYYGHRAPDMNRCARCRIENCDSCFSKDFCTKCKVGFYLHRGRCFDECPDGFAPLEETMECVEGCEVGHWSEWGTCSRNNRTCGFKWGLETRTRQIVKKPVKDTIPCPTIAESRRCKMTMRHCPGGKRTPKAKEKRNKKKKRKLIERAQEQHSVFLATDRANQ

[8] = biological target: T9, FLAG-tagged human RSPO2 (Genentech) (human, UniProt Q6UXX9 22-243); assay: competitive binding ELISA: titrated against biotinylated RNF43-Flag (RNF43-ECD) binding to plate-coated hRSPO2; signal = bound RNF43, normalized OD
T9 construct: also called hRSPO2; RSPO2 coated plates; not shown: FLAG tag

| Binder | percentage of cells staining [1] [%] | percentage of cells staining [2] [%] | percentage of cells staining [3] [%] | binding result [4] | binding result [5] | binding result [6] | IC50, WNT luciferase reporter, bivalent antibody (recombinant human RSPO2) [nM] | IC50, WNT luciferase reporter, bivalent antibody (recombinant human RSPO3) [nM] | IC50, WNT luciferase reporter, bivalent antibody (cynomolgus RSPO3) [nM] | IC50, WNT luciferase reporter, bivalent antibody (mouse RSPO3) [nM] | IC50, WNT luciferase reporter, bivalent antibody (cynomolgus RSPO2) [nM] | IC50, WNT luciferase reporter, bivalent antibody (mouse RSPO2) [nM] | IC50 (read off the curve), WNT reporter RLU stimulated by 38 pM rhRSPO2 L186P [7] [pM] | IC50 (read off the curve) [8] [µg/mL] |
| --- | --- | --- | --- | --- | --- | --- | --- | --- | --- | --- | --- | --- | --- | --- |
| B1 | 95 | 40 | 60 | no binding | no binding | no binding |  |  |  |  |  |  |  |  |
| B2 | > 95 | < 5 | 50 | no binding | no binding | no binding | 0.012 | > 500 | > 500 | > 500 | 0.013 | 0.044 | ~20 | ~1 |
| B3 |  |  |  |  | no binding |  | 0.179 | > 500 | > 500 | > 500 | 1.9 | > 500 |  |  |
